± gives the uncertainty stated by the source.
B1: Nuclear receptor subfamily 1 group D member 2, residues 103 to 171; numbered along this chain, Q14995 (parent)
chain: CKVCGDVASGFHYGVHACEGCKGFFRRSIQQNIQYKKCLKNENCSIMRMNRNRCQQCRFKKCLSVGMSR

Variants of: B1
Test: abundance fitness (aPCA) (normalised: wild type 0, dead -1); higher = more abundant; growth selection in yeast, the domain comes from the species named
Conditions: Homo sapiens

Abundance fitness of substitutions, site by site:
G20: D 0.531 ± 0.19, S 0.212 ± 0.27
L39: I 0.161 ± 0.2, H -0.167 ± 0.17, K -0.128 ± 0.18, Q -0.068 ± 0.15, A 0.084 ± 0.075, Y -0.02 ± 0.16, D 0.321 ± 0.12, E 0.262 ± 0.13, F -0.57 ± 0.24, W -0.559 ± 0.18, S 0.165 ± 0.082, G -0.163 ± 0.063, M 0.1 ± 0.14, N 0.018 ± 0.13, P -0.106 ± 0.11, T -0.121 ± 0.16
N32: G -0.074 ± 0.046, W -0.891 ± 0.12, H -0.566 ± 0.14, L -0.706 ± 0.099, Q 0.144 ± 0.12, V -0.672 ± 0.084, Y -0.776 ± 0.17, S -0.381 ± 0.072, K -0.401 ± 0.11, M -0.44 ± 0.14, E 0.176 ± 0.083, R -0.423 ± 0.068, I -0.329 ± 0.12, D -0.199 ± 0.093, F -0.408 ± 0.14, C -0.612 ± 0.2, A -0.343 ± 0.077, T -0.414 ± 0.092
G23: V -0.041 ± 0.47, R -0.087 ± 0.5, D 0.195 ± 0.34
R26: V -0.383 ± 0.16, F -0.326 ± 0.43, Q 0.214 ± 0.15, H -0.359 ± 0.41, N 0.135 ± 0.18, A 0.133 ± 0.058, K -0.349 ± 0.34, L -0.226 ± 0.14, W 0.408 ± 0.069, E -0.032 ± 0.15, M 0.319 ± 0.42, I 0.342 ± 0.22, Y -0.246 ± 0.24, G -0.092 ± 0.091, T 0.092 ± 0.17
Q30: S -0.364 ± 0.21, P -0.523 ± 0.32, L -0.023 ± 0.095, N -0.43 ± 0.49, M -0.521 ± 0.41, T 0.126 ± 0.17, F -0.634 ± 0.3, R -0.557 ± 0.16, I -0.553 ± 0.5, K -0.195 ± 0.17, D 0.022 ± 0.16, V -0.092 ± 0.098, A 0.04 ± 0.096
H12: P -0.835 ± 0.22, Y -0.253 ± 0.12, I -0.747 ± 0.33, R -0.732 ± 0.13, D -0.44 ± 0.13, M -0.936 ± 0.28, A -0.28 ± 0.081, Q -0.568 ± 0.2, T -0.546 ± 0.15, S -0.301 ± 0.077, F -0.514 ± 0.16, W 0.033 ± 0.08, E -0.587 ± 0.2, N -0.161 ± 0.17, G -0.421 ± 0.075
G14: L -0.898 ± 0.18, F -0.558 ± 0.41, W -0.878 ± 0.22, A -0.871 ± 0.23, P -0.835 ± 0.24, M -0.759 ± 0.2, D -0.579 ± 0.49, S -0.291 ± 0.11, T -0.828 ± 0.38
K40: D 0.115 ± 0.09, C -0.615 ± 0.19, M -0.059 ± 0.11, A 0.106 ± 0.056, H -0.12 ± 0.13, F 0.09 ± 0.11, L -0.042 ± 0.051, G 0.202 ± 0.042
I33: V -0.213 ± 0.048, D -0.708 ± 0.088, A -0.377 ± 0.058, G -0.338 ± 0.053, Q -0.553 ± 0.11, C -0.591 ± 0.097, H -0.493 ± 0.14, R -0.531 ± 0.058, M -0.35 ± 0.077, P -0.672 ± 0.12, F -0.38 ± 0.082, E -0.424 ± 0.089, S -0.527 ± 0.071, W -0.668 ± 0.12, L -0.065 ± 0.049, Y -0.181 ± 0.12
S28: K -0.801 ± 0.49, W -0.733 ± 0.39, C 0.179 ± 0.14, V -0.419 ± 0.21, T 0.24 ± 0.37, G -0.748 ± 0.26, M -0.291 ± 0.42
C38: S -0.579 ± 0.075, Y -0.785 ± 0.44, V -0.551 ± 0.11, Q -0.803 ± 0.45, A -0.74 ± 0.26, D -0.894 ± 0.31, L -1.01 ± 0.22, P -0.682 ± 0.35, W -0.521 ± 0.13, F -0.864 ± 0.28, G -0.836 ± 0.14, R -0.842 ± 0.14, T -0.768 ± 0.26, E -0.857 ± 0.27
E19: P -0.465 ± 0.42, R -0.058 ± 0.27, G -0.63 ± 0.19, S -0.583 ± 0.18, W -0.325 ± 0.17, M -0.884 ± 0.43, L -0.858 ± 0.32, Y -0.394 ± 0.36, Q -0.699 ± 0.26, V -0.669 ± 0.37, T -0.478 ± 0.28, D 0.114 ± 0.21
R27: L -0.154 ± 0.13, F -0.581 ± 0.33, E 0.216 ± 0.25, T -0.034 ± 0.24, H 0.305 ± 0.27, S -0.51 ± 0.23, V 0.094 ± 0.096, W 0.091 ± 0.23, M 0.073 ± 0.19, N 0.237 ± 0.32, K -0.275 ± 0.21, G -0.433 ± 0.12, D 0.126 ± 0.19
Y13: P -0.89 ± 0.16, L -0.453 ± 0.078, W -0.152 ± 0.065, H -0.145 ± 0.15, A -0.459 ± 0.09, M -0.732 ± 0.16, S -0.576 ± 0.071, I -0.73 ± 0.12, K -0.491 ± 0.1, T -0.572 ± 0.089, E -0.099 ± 0.093, Q -0.615 ± 0.13, V -0.528 ± 0.087, C -0.496 ± 0.1, F 0.059 ± 0.089
K37: R -0.391 ± 0.1, Q -0.075 ± 0.12, A 0.064 ± 0.081, M 0.279 ± 0.17, L -0.473 ± 0.11, D 0.255 ± 0.044, H -0.241 ± 0.18, S 0.011 ± 0.07, Y -0.631 ± 0.35, P 0.27 ± 0.081, C -0.495 ± 0.18, T -0.234 ± 0.12, I -0.279 ± 0.14, W -0.225 ± 0.17, V -0.387 ± 0.099, N 0.375 ± 0.11, E -0.04 ± 0.1
A17: C 0.092 ± 0.041, S -0.346 ± 0.1, V -0.222 ± 0.058, E -0.805 ± 0.15, W -0.702 ± 0.18, R -0.887 ± 0.16, T -0.392 ± 0.14, N -0.422 ± 0.43, Q -0.902 ± 0.32, L -0.666 ± 0.14, P -0.962 ± 0.3, M -0.89 ± 0.21
F24: V -0.81 ± 0.15, W -0.723 ± 0.23, S -0.661 ± 0.3, N -0.908 ± 0.37, K -1.04 ± 0.46, T -0.422 ± 0.21, A -1.09 ± 0.34, I -1.02 ± 0.42, E -0.68 ± 0.23, G -0.798 ± 0.17, Q -0.664 ± 0.41, L -0.272 ± 0.16, P -0.52 ± 0.47, R -0.924 ± 0.19
S9: Y -0.49 ± 0.4
H16: N -0.297 ± 0.19, E 0.219 ± 0.082, R -0.162 ± 0.067, Y -0.096 ± 0.075, T -0.1 ± 0.12, D 0.264 ± 0.098, I -0.306 ± 0.15, V -0.008 ± 0.059, F -0.062 ± 0.16, P -0.085 ± 0.091, K -0.501 ± 0.15, G -0.412 ± 0.073, M 0.123 ± 0.079, A -0.169 ± 0.055, C -0.411 ± 0.12, L 0.098 ± 0.056
I29: F -0.081 ± 0.18, G -0.821 ± 0.13, W -0.412 ± 0.13, E -0.675 ± 0.21, L -0.19 ± 0.066, S -0.7 ± 0.067, K -0.98 ± 0.29, Y -0.813 ± 0.36, N -0.058 ± 0.28, T -0.282 ± 0.091, C -0.388 ± 0.17, V -0.17 ± 0.075, R -0.601 ± 0.11, Q -0.339 ± 0.1, A -0.723 ± 0.14, M -0.14 ± 0.12
Q31: K -0.391 ± 0.25, S -0.207 ± 0.12, G -0.152 ± 0.072, F 0.04 ± 0.2, Y -0.276 ± 0.18, V -0.623 ± 0.13, N -0.475 ± 0.37, D -0.278 ± 0.18, R -0.289 ± 0.075, E 0.197 ± 0.1, T -0.238 ± 0.11, A -0.51 ± 0.099, P -0.457 ± 0.15, M -0.262 ± 0.15, L -0.169 ± 0.11, I -0.635 ± 0.29, W -0.465 ± 0.12, C -0.551 ± 0.15
V15: G -0.546 ± 0.08, C -0.623 ± 0.21, R -0.819 ± 0.1, L -0.3 ± 0.1, T -0.961 ± 0.47, P -0.67 ± 0.094, D -0.746 ± 0.33, I -0.327 ± 0.16, E -0.679 ± 0.17, S -0.954 ± 0.18, M -0.753 ± 0.15, Q -0.744 ± 0.2, Y -0.492 ± 0.38, N -0.954 ± 0.35
K36: A -0.172 ± 0.12, E 0.219 ± 0.35, L -0.459 ± 0.17, S 0.137 ± 0.18, V -0.26 ± 0.12, T -0.292 ± 0.2, P -0.199 ± 0.16, W -0.33 ± 0.2, M -0.267 ± 0.24, Q -0.305 ± 0.27, D -0.439 ± 0.31, I -0.509 ± 0.48, G 0.092 ± 0.11
F25: L -0.752 ± 0.19, S -0.609 ± 0.16, Q -0.797 ± 0.23, D -0.696 ± 0.42, I -0.152 ± 0.18, P -0.836 ± 0.41, N -0.647 ± 0.47, Y -0.481 ± 0.39, W -0.332 ± 0.23, A -0.72 ± 0.2, V -0.785 ± 0.22, G -0.86 ± 0.28, R -0.646 ± 0.19, E -0.634 ± 0.48
A8: T -0.363 ± 0.15, M -0.584 ± 0.14, N -0.476 ± 0.29, R -0.897 ± 0.1, V -0.798 ± 0.15, Y -0.782 ± 0.3, S -0.265 ± 0.073, Q -0.842 ± 0.23, P -0.893 ± 0.17
C18: A -0.515 ± 0.18, W -0.752 ± 0.29, Q -0.874 ± 0.22, S -0.812 ± 0.28, I -0.355 ± 0.4, E -0.847 ± 0.3, L -0.692 ± 0.17, V -0.79 ± 0.31, K -0.829 ± 0.32, G -0.813 ± 0.14, R -0.751 ± 0.14, M -0.537 ± 0.42
G10: D -0.433 ± 0.22, V -0.119 ± 0.38
